# Measurements reported in PMC6817756.
# Key:
# [1] = molecular target: Omomyc (recombinant, bacterially expressed) (UniProt P01106); assay: native gel or EMSA; native gel electrophoresis of purified recombinant Omomyc (the legend of Fig. 1A speaks of SDS-PAGE under nonreduced and reduced conditions)
# [2] = molecular target: Omomyc (recombinant, bacterially expressed) (UniProt P01106); assay: SEC; size exclusion chromatography of purified Omomyc, data not shown
# [3] = molecular target: Myc (human (endogenous in HCT116)) (UniProt P01106)
# ME-47 = assay: fluorescence polarization; details: FP: 10 mM Tris-HCl, 50 mM KCl, 1 mM EDTA, 5 mM MgCl2, 10 mM DTT, 2 nM DNA stock mixed 20 ul + 20 ul protein, 30 min, pH and temperature not stated; pulldown: …
# [4] = molecular target: T1, Omomyc (synthetic or recombinant) (UniProt P01106 365-454, E425T;E432I;R438Q;R439N); assay: fluorescence polarization; synthetic Omomyc; FP: 10 mM Tris-HCl, 50 mM KCl, 1 mM EDTA, 5 mM MgCl2, 10 mM DTT, 2 nM DNA stock mixed 20 ul + 20 ul protein, 30 min, pH and temperature not stated; pulldown: 50 mM Tris-HCl pH 7.5, 5% glycerol, 1.5 mM MgCl2, 150 mM NaCl, 1 mM DTT, IGEPAL, 4 C; details: chain copies: 2; blunt
# [5] = molecular target: MYC bHLH peptide (MYC/MYC) (UniProt P01106 365-454); assay: fluorescence polarization; table heading: affinity; FP: 10 mM Tris-HCl, 50 mM KCl, 1 mM EDTA, 5 mM MgCl2, 10 mM DTT, 2 nM DNA stock mixed 20 ul + 20 ul protein, 30 min, pH and temperature not stated; pulldown: 50 mM Tris-HCl pH 7.5, 5% glycerol, 1.5 mM MgCl2, 150 mM NaCl, 1 mM DTT, IGEPAL, 4 C; details: chain copies: 2, blunt
# [6] = molecular target: T2, MAX bHLH peptide (MAX/MAX) (UniProt P61244 22-103); assay: as above; details: chain copies: 2; blunt
# [7] = molecular target: T1, Omomyc (synthetic or recombinant); assay: as above; details: chain copies: 2, blunt
# [8] = molecular target: MYC bHLH peptide (in MYC/MAX);MAX bHLH peptide (in MYC/MAX) (;, UniProt P01106;P61244 365-454;22-103, |); assay: as above; details: tags: ;, copies: 1;1, blunt
# [9] = molecular target: T2, MAX bHLH peptide (MAX/MAX); assay: fluorescence polarization; text: fails to bind; FP: 10 mM Tris-HCl, 50 mM KCl, 1 mM EDTA, 5 mM MgCl2, 10 mM DTT, 2 nM DNA stock mixed 20 ul + 20 ul protein, 30 min, pH and temperature not stated; pulldown: 50 mM Tris-HCl pH 7.5, 5% glycerol, 1.5 mM MgCl2, 150 mM NaCl, 1 mM DTT, IGEPAL, 4 C; details: chain copies: 2; label: 5'-FAM; blunt
molecule,measurement,setting,value
"Omomyc (recombinant, bacterially expressed) (from UniProt P01106 369-421) (domain or fragment)",stoichiometry N,[1],2
same,stoichiometry N,[2],2
same,cellular thermal shift assay (CETSA) in Ramos cell lysates with 20 μM Omomyc: change in the aggregation temperature (Tagg) of Myc (destabilisation),[3],6 °C
same,"cellular thermal shift assay (CETSA), isothermal dose-response fingerprint at 54°C in Ramos cell lysates: EC50 of Omomyc for thermal destabilisation of Myc",[3],16000 nM
CCCCCACCACGTGGTGCCTGA (double strand) [E box DNA (FP probe)],Kd,ME-47,117 nM
CCCCCACCACCTGGTGCCTGA (double strand) [VEGFA-1 E box],Kd,ME-47,1080 nM
CCCCCACCACGCGGTGCCTGA (double strand) [VEGFA-2 E box],Kd,ME-47,3110 nM
E box DNA (FP probe) (dsDNA) DNA 1: CCCCCACCACGTGGTGCCTGA DNA 2: TCAGGCACCACGTGGTGGGGG,Kd,[4],~22 nM
same,Kd,[5],159 nM
same,Kd,[6],258 nM
same,Kd,[7],107 nM
same,Kd,[8],71.4 nM
VEGFA-1 E box (dsDNA) DNA 1: CCCCCACCACCTGGTGCCTGA DNA 2: TCAGGCACCAGGTGGTGGGGG,Kd,[5]; label: 5'-FAM,140 nM
same,Kd,[7]; label: 5'-FAM,103 nM
same,Kd,[8]; label: 5'-FAM,397 nM
same,Kd,[9],3390 nM
VEGFA-2 E box (dsDNA) DNA 1: CCCCCACCACGCGGTGCCTGA DNA 2: TCAGGCACCGCGTGGTGGGGG,Kd,[5]; label: 5'-FAM,111 nM
same,Kd,[7]; label: 5'-FAM,99.2 nM
same,Kd,[8]; label: 5'-FAM,451 nM
same,Kd,[9],2020 nM
